Laboratory results from the Human Domainome abundance scans (Beltran et al. 2025).
± gives the uncertainty stated by the source.

B1: Intersectin-1, residues 1156 to 1213; numbered along this chain, Q15811 (parent)
chain: AVCQVIGMYDYTAQNDDELAFNKGQIINVLNKEDPDWWKGEVNGQVGLFPSNYVKLTT

Variants of: B1
Experiment: abundance fitness (aPCA) (normalised: wild type 0, dead -1); higher = more abundant; growth selection in yeast, the domain comes from the species named
Conditions: Homo sapiens

Variant | abundance fitness
AVCQVIGMYDYTAQNDDELAFNKGQIINVLNKEDPDWWKGEVNGQVILFPSNYVKLTT [G47I] | -0.846 ± 0.17
AVCQVIGMYDYTAQNDDELAFNKGQIINVLNKEDPDWWKGEVNGQVCLFPSNYVKLTT [G47C] | -0.974 ± 0.2
AVCQVIGMYDYTAQNDDELAFNKGQIINVLNKEDPDWWKGEVNGQVNLFPSNYVKLTT [G47N] | -0.651 ± 0.24
AVCQVIGMYDYTAQNDDELAFNKGQIINVLNKEDPDWWKGEVNGQVFLFPSNYVKLTT [G47F] | -1.01 ± 0.24
AVCQVIGMYDYTAQNDDELAFNKGQIINVLNKEDPDWWKGEVNGQVHLFPSNYVKLTT [G47H] | -0.943 ± 0.34
AVCQVIGMYDYTAQNDDELAFNKGQIINVLNKEDPDWWKGEVNGQVKLFPSNYVKLTT [G47K] | -0.582 ± 0.16
AVCQVIGMYDYTAQNDDELAFNKGQIINVLNKEDPDWWKGEVNGQVALFPSNYVKLTT [G47A] | -0.755 ± 0.12
AVCQVIGMYDYTAQNDDELAFNKGQIINVLNKEDPDWWKGEVNGQVDLFPSNYVKLTT [G47D] | -0.833 ± 0.14
AVCQVIGMYDYTAQNDDELAFNKGQIINVLNKEDPDWWKGEVNGQVELFPSNYVKLTT [G47E] | -0.853 ± 0.15
AVCQVIGMYDYTAQNDDELAFNKGQIINVLNKEDPDWWKGEVNGQVLLFPSNYVKLTT [G47L] | -0.881 ± 0.13
AVCQVIGMYDYTAQNDDELAFNKGQIINVLNKEDPDWWKGEVNGQDGLFPSNYVKLTT [V46D] | -0.668 ± 0.16
AVCQVIGMYDYTAQNDDELAFNKGQIINVLNKEDPDWWKGEVNGQGGLFPSNYVKLTT [V46G] | -0.712 ± 0.093
AVCQVIGMYDYTAQNDDELAFNKGQIINVLNKEDPDWWKGEVNGQEGLFPSNYVKLTT [V46E] | -0.412 ± 0.13
AVCQVIGMYDYTAQNDDELAFNKGQIINVLNKEDPDWWKGEVNGQMGLFPSNYVKLTT [V46M] | -0.396 ± 0.18
AVCQVIGMYDYTAQNDDELAFNKGQIINVLNKEDPDWWKGEVNGQAGLFPSNYVKLTT [V46A] | -0.505 ± 0.091
AVCQVIGMYDYTAQNDDELAFNKGQIINVLNKEDPDWWKGEVNGQFGLFPSNYVKLTT [V46F] | -0.463 ± 0.19
AVCQVIGMYDYTAQNDDELAFNKGQIINVLNKEDPDWWKGEVNGQHGLFPSNYVKLTT [V46H] | -0.562 ± 0.26
AVCQVIGMYDYTAQNDDELAFNKGQIINVLNKEDPDWWKGEVNGQWGLFPSNYVKLTT [V46W] | -0.892 ± 0.19
AVCQVIGMYDYTAQNDDELAFNKGQIINVLNKEDPDWWKGEVNGQRGLFPSNYVKLTT [V46R] | -0.375 ± 0.09
AVCQVIGMYDYTAQNDDELAFNKGQIINVLNKEDPDWWKGEVNGQQGLFPSNYVKLTT [V46Q] | -0.242 ± 0.14
AVCQVIGMYDYTAQNDDELAFNKGQIINVLNKEDPDWWKGEVNGQCGLFPSNYVKLTT [V46C] | -0.503 ± 0.12
AVCQVIGMYDYTAQNDDELAFNKGQIINVLNKEDPDWWKGEVNGQKGLFPSNYVKLTT [V46K] | -0.306 ± 0.13
AVCQVIGMYDYTAQNDDELAFNKGQIINVLNKEDPDWWKGEVNGQNGLFPSNYVKLTT [V46N] | -0.703 ± 0.29

Variant | abundance fitness
AVCQVIGMYDYTAQNDDELAFNKGQIINVLNKEDPDWWKGEVNGQLGLFPSNYVKLTT [V46L] | -0.499 ± 0.11
AVCQVIGMYDYTAQNDDELAFNKGQIINVLNKEDPDWWKGEVNGQTGLFPSNYVKLTT [V46T] | -0.337 ± 0.12
AVCQVIGMYDYTAQNDDELAFNKGQIINVLNKEDPDWWKGEVNGQYGLFPSNYVKLTT [V46Y] | -0.34 ± 0.17
AVCQVIGMYDYTAQNDDELAFNKGQIINVLNKEDPDWWKGEVNGQSGLFPSNYVKLTT [V46S] | -0.296 ± 0.09
AVCQVIGMYDYTAQNDDELAFNKGQIINVLNKEDPDWWKGEVNGQIGLFPSNYVKLTT [V46I] | -0.006 ± 0.13
AVCQVIGMYDYTAQNDDELAFNKGQIINVLNKEDPDWWKGEVNGVVGLFPSNYVKLTT [Q45V] | 0.008 ± 0.084
AVCQVIGMYDYTAQNDDELAFNKGQIINVLNKEDPDWWKGEVNGYVGLFPSNYVKLTT [Q45Y] | -0.411 ± 0.16
AVCQVIGMYDYTAQNDDELAFNKGQIINVLNKEDPDWWKGEVNGGVGLFPSNYVKLTT [Q45G] | -0.662 ± 0.11
AVCQVIGMYDYTAQNDDELAFNKGQIINVLNKEDPDWWKGEVNGSVGLFPSNYVKLTT [Q45S] | -0.198 ± 0.1
AVCQVIGMYDYTAQNDDELAFNKGQIINVLNKEDPDWWKGEVNGLVGLFPSNYVKLTT [Q45L] | -0.28 ± 0.1
AVCQVIGMYDYTAQNDDELAFNKGQIINVLNKEDPDWWKGEVNGKVGLFPSNYVKLTT [Q45K] | 0.084 ± 0.14
AVCQVIGMYDYTAQNDDELAFNKGQIINVLNKEDPDWWKGEVNGTVGLFPSNYVKLTT [Q45T] | -0.169 ± 0.13
AVCQVIGMYDYTAQNDDELAFNKGQIINVLNKEDPDWWKGEVNGDVGLFPSNYVKLTT [Q45D] | 0.075 ± 0.17
AVCQVIGMYDYTAQNDDELAFNKGQIINVLNKEDPDWWKGEVNGEVGLFPSNYVKLTT [Q45E] | -0.149 ± 0.13
AVCQVIGMYDYTAQNDDELAFNKGQIINVLNKEDPDWWKGEVNGNVGLFPSNYVKLTT [Q45N] | 0.109 ± 0.16
AVCQVIGMYDYTAQNDDELAFNKGQIINVLNKEDPDWWKGEVNGIVGLFPSNYVKLTT [Q45I] | -0.1 ± 0.13
AVCQVIGMYDYTAQNDDELAFNKGQIINVLNKEDPDWWKGEVNGHVGLFPSNYVKLTT [Q45H] | -0.398 ± 0.22
AVCQVIGMYDYTAQNDDELAFNKGQIINVLNKEDPDWWKGEVNGRVGLFPSNYVKLTT [Q45R] | -0.043 ± 0.089
AVCQVIGMYDYTAQNDDELAFNKGQIINVLNKEDPDWWKGEVNGPVGLFPSNYVKLTT [Q45P] | -0.765 ± 0.17
AVCQVIGMYDYTAQNDDELAFNKGQIINVLNKEDPDWWKGEVNGFVGLFPSNYVKLTT [Q45F] | -0.387 ± 0.17
AVCQVIGMYDYTAQNDDELAFNKGQIINVLNKEDPDWWKGEVNGMVGLFPSNYVKLTT [Q45M] | -0.023 ± 0.13
AVCQVIGMYDYTAQNDDELAFNKGQIINVLNKEDPDWWKGEVNGCVGLFPSNYVKLTT [Q45C] | -0.03 ± 0.15
AVCQVIGMYDYTAQNDDELAFNKGQIINVLNKEDPDWWKGEVNGWVGLFPSNYVKLTT [Q45W] | -0.537 ± 0.14
